Results taken from US20160002599A1.
Values joined by “and” are separate entries in the source; they are usually repeats but may differ in a detail not shown here. Equal values may be shown once.

Biological target: von Willebrand factor (vWF)
Assay: cell-based or functional assay

von Willebrand factor (vWF), sequence (P04275 764-2813): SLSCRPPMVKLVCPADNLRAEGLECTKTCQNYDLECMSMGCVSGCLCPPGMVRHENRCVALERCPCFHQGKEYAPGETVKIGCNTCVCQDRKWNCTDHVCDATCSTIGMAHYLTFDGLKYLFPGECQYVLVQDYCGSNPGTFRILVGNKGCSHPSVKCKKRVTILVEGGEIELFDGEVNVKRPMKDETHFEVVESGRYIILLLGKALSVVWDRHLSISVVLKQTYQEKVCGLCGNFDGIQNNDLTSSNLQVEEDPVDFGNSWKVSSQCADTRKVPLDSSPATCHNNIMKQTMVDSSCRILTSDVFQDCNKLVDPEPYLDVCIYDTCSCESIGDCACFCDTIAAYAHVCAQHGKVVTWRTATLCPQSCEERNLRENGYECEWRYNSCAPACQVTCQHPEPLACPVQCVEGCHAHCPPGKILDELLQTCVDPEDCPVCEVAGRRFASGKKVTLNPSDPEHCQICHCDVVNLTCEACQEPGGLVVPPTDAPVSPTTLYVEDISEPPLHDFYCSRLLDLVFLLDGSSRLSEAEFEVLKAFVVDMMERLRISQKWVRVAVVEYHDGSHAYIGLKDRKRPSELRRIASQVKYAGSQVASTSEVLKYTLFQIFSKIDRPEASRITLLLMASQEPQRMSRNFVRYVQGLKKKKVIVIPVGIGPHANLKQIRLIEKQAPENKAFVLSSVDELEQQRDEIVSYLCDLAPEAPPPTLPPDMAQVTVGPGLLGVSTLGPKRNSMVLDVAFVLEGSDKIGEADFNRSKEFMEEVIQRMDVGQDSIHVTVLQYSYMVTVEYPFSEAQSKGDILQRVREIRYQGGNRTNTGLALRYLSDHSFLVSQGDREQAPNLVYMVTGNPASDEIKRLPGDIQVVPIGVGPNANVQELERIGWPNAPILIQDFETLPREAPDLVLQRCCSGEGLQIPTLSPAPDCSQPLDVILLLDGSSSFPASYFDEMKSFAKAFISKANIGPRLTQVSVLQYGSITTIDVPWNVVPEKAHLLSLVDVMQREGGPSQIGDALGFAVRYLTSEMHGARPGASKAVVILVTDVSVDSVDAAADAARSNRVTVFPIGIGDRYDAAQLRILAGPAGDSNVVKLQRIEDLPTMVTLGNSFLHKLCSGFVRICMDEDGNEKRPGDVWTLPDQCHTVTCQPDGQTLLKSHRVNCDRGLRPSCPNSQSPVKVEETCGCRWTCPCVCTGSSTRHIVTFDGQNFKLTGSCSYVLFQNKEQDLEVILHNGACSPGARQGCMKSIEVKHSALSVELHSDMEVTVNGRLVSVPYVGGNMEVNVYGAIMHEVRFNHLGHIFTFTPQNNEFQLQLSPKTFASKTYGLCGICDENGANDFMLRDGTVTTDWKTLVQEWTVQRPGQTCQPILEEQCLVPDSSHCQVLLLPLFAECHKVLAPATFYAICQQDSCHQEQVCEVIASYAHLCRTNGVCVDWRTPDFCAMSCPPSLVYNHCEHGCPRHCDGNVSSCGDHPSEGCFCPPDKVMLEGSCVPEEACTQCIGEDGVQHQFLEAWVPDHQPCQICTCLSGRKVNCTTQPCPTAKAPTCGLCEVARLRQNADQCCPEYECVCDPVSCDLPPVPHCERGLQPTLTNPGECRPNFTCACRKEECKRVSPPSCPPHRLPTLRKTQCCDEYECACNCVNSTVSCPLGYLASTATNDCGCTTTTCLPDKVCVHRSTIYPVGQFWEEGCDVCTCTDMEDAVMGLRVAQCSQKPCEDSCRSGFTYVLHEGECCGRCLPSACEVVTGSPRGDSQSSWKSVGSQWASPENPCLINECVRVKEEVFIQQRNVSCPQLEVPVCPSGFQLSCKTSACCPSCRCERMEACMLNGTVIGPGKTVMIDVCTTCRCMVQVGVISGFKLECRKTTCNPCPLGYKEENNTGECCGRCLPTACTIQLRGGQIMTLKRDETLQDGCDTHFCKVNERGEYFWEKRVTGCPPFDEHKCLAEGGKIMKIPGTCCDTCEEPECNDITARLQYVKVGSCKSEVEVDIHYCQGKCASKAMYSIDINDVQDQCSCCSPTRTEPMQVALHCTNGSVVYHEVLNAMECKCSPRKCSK

With “CD42b (from UniProt P07359 17-652) (receptor)” the platelets bound to the channel (chamber coated with 10 ug/mL vWF, flow rate 1600 s-1) was 62.3% and 75.8%.
